Laboratory results: the DeepSol protein solubility set

experiment: soluble on expression in E. coli; label from the status in PepcDB or PDB records

Soluble on expression in E. coli, not soluble:
MGSDKIHHHHHHMKRRPTINDVAKLAGVSISTVSRYLKDPSQVSEKLGERIREAIKKLGYKPNKIAQGLRTGDSKMIGFIVPDITNPAFLTIVKGAEDFLRKKGYSFIIGGTDHKSKDEVVILESFIFHNVDGVIVTCTGYENKALKELIERYHLKLVFVDRRYPGIDAPYIGVDNFGGVARMVDYLVETGHRSFAYLCGDMTSTAKERLEGFLDRMKKYKIKDYQVLYGEFTFESGYKLTKRLSKIPDAIIAGNDLMAFGVIEALKERGLVVPEDVSVTGFDDMFFSKYYKPSLTTVRQDLYEMGKQAGKVLFALISGKKIRKKEYILPTEIVIRDSVKERRA
MGSDKIHHHHHHMKRSEKKSMSSALKNGIMERTQPEKVVQMQGTADLSTSKLGTKKYWDELYALELENFRRNPQDTGDCWFSDSDAEQKMIDFLVDNIGAYRISENASVVDLGTGNGHMLFELHQTEFQGKLVGIDYSEESVKLASNIAEATGVDNFISFQQADIFSGDWKPGKYDIVLDKGTLDAISLSGMKINGKLDVVDVYAGVVERILKKDGIFLITSCNFTQDELVKIIETDNLKMWKTIKYPVFQFGGVQGATICSVAFVKQN
MGSDKIHHHHHHMKRSQINEIMAEAETFMRSFGFVLPPFAYWTPEEMRANASVAKAVIDGRLGWDITDYGEGKFDELGLFLFTLRNGRLSDLQAGGGMCYAEKLLISKQDQISPMHRHMLKAEDIINRGGATMAIELNGSAPDGSFDPDAGGVVMCDGIERRFSAGEVLLFAPGESVTLMPGDWHKFWGEGGDVLIGEVSTVNNDDTDNWFREPIGRFAAVDEDVAPTHLLVSDYGTWL
MGSDKIHHHHHHMKSPEEVTKWVRQRYQRQRWAWLDGGGAWPLQVSLDLPTQKVALADPSAVRTWSSSWADWLAVHPADASRPLPELLTATVAWRNMGEQTLPGALAFSSPECVADYCGDGKVWRRIVSRRATMLARWPALHASGFGSNYTALGEFKDEDFERLLAVLEWLVANPKSGIYLRQLPVPNIDTKWIDLQRRGVVADLFSRIIKPQAALQAVQSFVEGEGAEIDATGQAYSIEKESSNFYDTCGLLRPPVKLRILILCPKLRTQVGGLRDIEATIEDWAQLQLKPRQLLVVENKDTCLAMPDVDGVVAVIKLGNAVALVTRIAWLVRVPVLYWGDIDTYGYSILVQARKKLHDVRSVLMDRSTVETHLDRLVEEGQQTKSIDRSLLTAAELDVYDALLAHDWGTSRRLEQERLEWPSALRTVLSALHQRESKSA
MGSDKIHHHHHHMKSYIIVGAGILGASTAYHLAKTGARVTVIDRKEPGQATDAAAGIVCPWLSQRRNQDWYQLAKGGARYYKDLIHQLEKDGESDTGYKRVGAISIHTDASKLDKMEERAYKRREDAPEIGDITRLSASETKKLFPILADGYESVHISGAARVNGRALCRSLLSAAEKRGATVIKGNASLLFENGTVTGVQTDTKQFAADAVIVTAGAWANEILKPLGIHFQVSFQKAQIMHFEMTDADTGSWPVVMPPSDQYILSFDNGRIVAGATHENDAGLDDLRVTAGGQHEVLSKALAVAPGLADAAAVETRVGFRPFTPGFLPVVGAVPNVQGLYAANGLGASGLTMGPFLGAELAKLVLGKQTELDLSPYDPAGALA
MGSDKIHHHHHHMKTDFTIREAQQTDTIALKELFQNTVLAVNSKDYSQAEVEDWASCGDDLSNIEEMIKTHYFIVAVNQQSQIVGFSSITSQGYLHSMFVHKDFQGKGIATMLLEEIERYAITAGIMRITSEVSLTARPFFEKKGYIVKEEQKRKANQLSLTNFWMAREMAKIKPYNGRIPACGVFCGGCPIYTREKRACRGAELNHSRCEKCKTFHLCCFGKKITHCFQCSNFPCTRFKGFAKRWQKHGQDFIENQKLLSEIGEVAFLEYYNKKVTD
MGSDKIHHHHHHMKTIAIRDVTGIMEPLPGFSVVRTDGSDGQRSIKLNGYKTTNNQYGYQFVKNENTVVYDDEEYIIKTHRERTYRKGVGVEATAIHRIFDDLRNNYIYDEKTGTLRLDAMLSFALEGSGYTFEIDTTDLPASVRVENFGWNNSLALFRDILEKFGAEFDYKGKKIYVAKKFGIQRDEPFLRYRFNVKDPEKEIDTSSFATYIRGYGKKDDKGNYLFAEYTSPLAKIYGIKHADPVKDERYTDKDSLLAAMKKQLNDNIDISLTFTAIELESMGLRDIKKGDYVWCVIEPFDLNVQLRAVSREDYSDETKSPTFTFGTITKKASDIIASFNTTKKAVDKVIDTSTGKIKDSAIDTTGLTTKSEFQSHVDNKIVHITAEERAAWNAASNSIGDLTFITWSTPTLKNGWIQYTANTESYPIQYGKDAIGTVNIRGAVSSGVVGSSTPVFTLPAGFRPPFPHLFIGVSSVATDGTPQYFRGIIKTNGDVCIENISNKDTPNQFIGIYTQFKAI
